# Measured values taken from the supplement of paper PMC9170038.
# Tests used:
# MS2 coat protein [1] = test: apparent KD of MS2 coat protein, switch ON state; designed switch direction (-1 OFF switch, 1 ON switch): 1; higher = weaker reporter binding; conditions: FMN input: 0 or 200 uM; Eterna round: R93 (includes R88 designs)
# Method in brief: (§1)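 Titration buffer: 100 mM Tris-HCl pH 7.5, 80 mM KCl, 4 mM MgCl2, without or with constant ligand. Designed RNA switches transcribed on-chip from Illumina sequencing clusters received SNAP-549-labelled MS2 coat protein in twofold steps from 0.7 or 1.5 nM to 3 µM. Apparent KD is the median per design of fits to normalised cluster binding curves.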
# MS2 coat protein [2] = test: apparent KD of MS2 coat protein, switch OFF state (with FMN for OFF switches, without FMN for ON switches); designed switch direction (-1 OFF switch, 1 ON switch): 1; higher = weaker reporter binding; conditions: FMN input: 0 or 200 uM; Eterna round: R93 (includes R88 designs)
# Method in brief: as §1
Sequence,apparent KD of MS2 coat protein (MS2 coat protein [1]) [nM],apparent KD of MS2 coat protein (MS2 coat protein [2]) [nM]
AAGAAACAUGAGGAUCACCCAUGUAAAUAAAUCUCAGGAUAUCGUACAUGGAAGAUCUAACGAGAAGGGAGAAGAA [Pariah 1 (MS2 Riboswitches - Same State 1)],85.7,63.4
AAAAAAAAAAGGCAGGAUAUCCAAAAAAAAACAUGAGGAUCACCCAUGUAAAAAAAAAAAAAAUGGGAGAAGGGCCAAAAAAAAAA [Mat - Mod of Eli],24.9,46.3
CUUAGACAUGAGGAUCACCCAUGUCGAACAAACAAAGGAUAUGGGAGCCGAAGAAGGCUAUUAGAAGGUUGCAAAA [Isesinbe],26.4,28.6
GAAAAACAUGAGGAUCACCCAUGUGAAAACUUGGGAGGAUAUACUAAGACGAAAGUCGAAGUAGAAGGCCUAAAAG [Same State 1.4j (Mat - Mod of Eli - )],19,89.1
AUAAAAUACUGUGAGGAUAUCCAUAAUAAAACAUGAGGAUCACCCAUGUGUAGAUAAUAAUAAUGGGAGAAGGCACAUAAUAAAU [SS2 M41],24.2,27.6
AAAAAACAUGAGGAUCACCCAUGUGCAAAAUUCGCAGGAUAUUUUUCUUUUAAAUGAGAGGGAGAAGGGUGUAAAA [Nob's Hobby 23 - Jieux - Same State 1],21.6,22.1
AAUAGACAUGAGGAUCACCCAUGUAGAAUUAUGGGAGGAUAUACAAAGACGAGAGUCAGAGUAGAAGGCCUAGGAU [salish99-ss1-149],24.7,51.8
AAAAAACAUGAGGAUCACCCAUGUGAAAAAAACGCAGGAUAUCCCUUUUUUAAAUGGGAGGGAGAAGGGUGAAAAA [Nob's Hobby 14 - Jieux - Same State 1],36.3,45.9
AUAAAACAUGAGGAUCACCCAUGUAGACACGUGGGAGGAUAUACUAGAUCGAAAGAUCUAGUAGAAGGCCUUCGUA [Mat - Same State 1 - JL mod - D94],23.7,38.4
AUAAUAAUAAGGUAGGAUAUGCUAAAGUAAACAUGAGGAUCACCCAUGUAAAGAAAAAAACUCAUGUAGAAGGGCCAGAAAUAAA [moonwalk 4],80.1,71.5
AACAAUCUAUCUGAGGAUAUCAUGUAAAAGACAUGAGGAUCACCCAUGUAGCAGGAAACUGCACAUGAGAAGGCAGAUAGAUUGA [SS2: 1124],15.9,19.6
AAAAGGGCGACACAGGAUAUGUUGACUCUAACAUGAGGAUCACCCAUGUGCGUUUAGGGUCGUGCGCAGAAGGGUGUAGCUCGGA [Orvele],12.9,24.1
AAUAUACAUGAGGAUCACCCAUGUUAGGUGGGACUAGGAUAUCAAAAUACAUAAUGAACAUGAGAAGGAGUAUCAA [JR_SS001_Sub403],140,249
GAACCACAUGAGGAUCACCCAUGUCUAAGAAAUUAAGGAUAUGCACAAAAGGAAAUAACUGCAGAAGGUAAACGAA [Redo],25.1,33.1
AGGAGACAUGAGGAUCACCCAUGUGAGAAGAGGCGAGGAUAUCGAAAGAAAGAAGAGAAACGAGAAGGCGCGAGUG [salish99-SS1-026],28.1,40.9
AAAUAAAUGACUCAGGAUAUAUCAUAGAGUACAUGAGGAUCACCCAUGUUUUAAUAACAUGUUUGGUAGAAGGGAGUCAAUAAAU [LROPPY Same State 2 - v06_deltaG=1.99],25.8,127
AUAACACAUGAGGAUCACCCAUGUAGAUCCACGUCAGGAUAUGCAAAGAAAAUAAACAAAGCAGAAGGGACAAUAA [SS 1 Tesla 1],47.3,49.6
UACAGACAUGAGGAUCACCCAUGUAGAAUUAUGGGAGGAUAUACAAAGACGAGAGUCAGAGUAGAAGGCCUAGGAU [salish99-ss1-164],23.5,61.3
GCACCACAUGAGGAUCACCCAUGUAAAACGUAGCAAGGAUAUGGGCACGGAUAAUUCCGAUCAGAAGGUGUAACGC [Gemaditera],105,35.2
AAAAUACAUGAGGAUCACCCAUGUCCGACAAAUCAAGGAUAUGAUAGCCAAACCAGGCUGUUAGAAGGUGAAAGAA [Esesrien],260,151

Sequence,apparent KD of MS2 coat protein (MS2 coat protein [1]) [nM],apparent KD of MS2 coat protein (MS2 coat protein [2]) [nM]
AAUUGACAUGAGGAUCACCCAUGUAGGAUUAUGGGAGGAUAUACAAAGACGAGAGUCAGAGUAGAAGGCCUAGGAA [salish99-ss1-146],25,82.1
GAAAAACAUGAGGAUCACCCAUGUAAAAAUAUGGGAGGAUAUAGAAAGACGAAAGUCAAACUAGAAGGCCUAAAAG [Garnet 1],28.1,63
AACAAUCUAUCUGAGGAUAUCAAGUCAAAGACAUGAGGAUCACCCAUGUGCAGGAAAACUGCACUUGAGAAGGCAGAUAGAUUGA [SS2: 1109],12.3,9.63
GGGAGACAUGAGGAUCACCCAUGUGAGAAGAGGCGAGGAUAUCGAAAAAAAAAAAAAAAACGAGAAGGCGCGAGAA [salish99-SS1-003],23.3,38
AAAAGACAUGAGGAUCACCCAUGUCAAAACGUGGGAGGAUAUGCAUGGAAAACAUGCUGUGCAGAAGGCCCGUGUC [SS1 - 21],27.5,46.4
AAUGAACAUGAGGAUCACCCAUGUUCUAACAGUUGAGGAUAUGUGGGUGAAAAUAGCACGGCAGAAGGCGAGUGUA [SameState1 Malc#20],119,54.6
AAAAUAAAAUAAAAGGAUAUAAAAUAAAAUACAUGAGGAUCACCCAUGUAUAAAAUAAAAAAAUAAAAGAAGGAAUAAAAAUAAA [SS2 504: MS2 4],16.4,11.2
GGAGCUCCAGCGCAGGAUAUCGACCCAGGGACAUGAGGAUCACCCAUGUUCCAAAAAAAAUGGGUCGAGAAGGGCGUUGGAGAGCC [SAmeState2-III],11,12.2
AGGAAACAUGAGGAUCACCCAUGUAGAAAUAUGGGAGGAUAUACAAAGACGAAAGUCAAAGUAGAAGGCCUAAAAA [Mat - Same State 1 - Mod - D151],17.6,57.1
AGAAAUAAAAGCUAGGAUAUCCAAAAGAAAACAUGAGGAUCACCCAUGUGAAAGAAAAUAAAAUGGGAGAAGGAGCAAAAUAAGA [Topaz 51],17.5,31
UAGAGGAAGAGAGAGGAUAUCCAAAGGAAAACAUGAGGAUCACCCAUGUAAAAGGUAGGAAAUUGGGAGAAGGCUCAAGAGAGAG [salish99-ss2-062],30.9,30.3
AGAAAUAAACCGAAGGAUAUCCAAACCUAAACAUGAGGAUCACCCAUGUAAAAGAAAAUAAAAUGGGAGAAGGUCGGAAAUAAGA [Designing denovo 13],17.7,25.3
AAAUAAAAAAAAAAGGAUAUUCAUGUAAAAACAUGAGGAUCACCCAUGUAAAAAAAUAAAAAUAAAAAGAAGGAAAAAUAAAAAA [SS2: 85 No MS2],77.1,164
AAGAGACAUGAGGAUCACCCAUGUAGGAUUAUGGGAGGAUAUACAAAGACGAGAGUCAGAGUAGAAGGCCUAGGAA [salish99-ss1-129(!)],24.5,65.1
AAGAAACAUGAGGAUCACCCAUGUAAGAUAAACACAGGAUAUGCGAAAAUAAAUAAAUAAGCAGAAGGGUGAAGAA [Mat - Same State 1 - Tesla mod - 66],14.8,42.4
CGUGAACAUGAGGAUCACCCAUGUGAAAAACAUAGAGGAUAUGUCACAUGAGUGUAAAAGACAGAAGGCUAUCGUG [Mod 1 of Round 1 starryjess' Mod pf Nando],98,152
AAUAUACAUGAGGAUCACCCAUGUUUUAAUAACGCAGGAUAUACGGGUGAAAACAGCAUAGUAGAAGGGCGAAAAA [SameState1 Malc#1],31.8,106
AACAUACAUGAGGAUCACCCAUGUUCCGGCAGGUCAGGAUAUGUAUCGAAAGAGUUAUAAACAGAAGGGACAUAAA [JR_SS001_Sub010],32.4,56.9
CGAAGACAUGAGGAUCACCCAUGUGGGAAUAUGGGAGGAUAUACAAAGACGAGAGUCAGAGUAGAAGGCCUAGGAU [salish99-ss1-105],29.5,78.7
